Experimental data taken from patent US20190292270A1 (UNIVERSITY OF TOKYO, published 2019).

Target: T1, mouse TLR9 (mouse, UniProt Q9EQU3 26-1032)
T1 construct: Endogenous TLR9 of mouse spleen cDCs (staining) and of BM-cDC lysate (immunoprecipitation); also called endogenous TLR9
T1 sequence: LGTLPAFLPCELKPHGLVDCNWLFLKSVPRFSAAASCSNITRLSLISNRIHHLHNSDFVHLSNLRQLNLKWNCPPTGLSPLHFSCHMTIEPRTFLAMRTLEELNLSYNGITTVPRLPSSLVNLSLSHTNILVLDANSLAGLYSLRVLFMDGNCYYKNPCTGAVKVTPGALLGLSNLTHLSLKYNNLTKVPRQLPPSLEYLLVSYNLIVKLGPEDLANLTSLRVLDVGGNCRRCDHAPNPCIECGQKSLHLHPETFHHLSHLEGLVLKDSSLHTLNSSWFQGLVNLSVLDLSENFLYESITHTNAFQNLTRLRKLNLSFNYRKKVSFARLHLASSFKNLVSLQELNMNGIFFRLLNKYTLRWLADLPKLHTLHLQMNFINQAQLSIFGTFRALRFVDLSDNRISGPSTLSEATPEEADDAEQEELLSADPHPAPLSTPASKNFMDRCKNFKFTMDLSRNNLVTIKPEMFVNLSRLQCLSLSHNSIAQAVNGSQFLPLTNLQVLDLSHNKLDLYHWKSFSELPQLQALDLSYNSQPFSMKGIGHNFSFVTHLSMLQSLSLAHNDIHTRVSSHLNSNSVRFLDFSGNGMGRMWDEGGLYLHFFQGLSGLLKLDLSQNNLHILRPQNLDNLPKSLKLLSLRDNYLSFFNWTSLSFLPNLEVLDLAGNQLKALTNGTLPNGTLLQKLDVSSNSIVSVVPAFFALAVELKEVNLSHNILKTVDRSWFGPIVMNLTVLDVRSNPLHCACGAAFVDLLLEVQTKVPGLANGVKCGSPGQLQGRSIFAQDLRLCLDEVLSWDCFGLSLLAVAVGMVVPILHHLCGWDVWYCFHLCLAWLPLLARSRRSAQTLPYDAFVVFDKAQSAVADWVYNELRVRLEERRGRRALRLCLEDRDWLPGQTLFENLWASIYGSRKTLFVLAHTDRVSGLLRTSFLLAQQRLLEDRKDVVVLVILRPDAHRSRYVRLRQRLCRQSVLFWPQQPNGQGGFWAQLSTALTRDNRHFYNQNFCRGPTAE
Test: immunoprecipitation from BM-cDC lysate, Western blot; also staining of spleen cDCs
Protocol: The protein expression of TLR9 was analyzed by Western blot. BM-cDCs were washed twice with 1×PBS and recovered. The recovered cells were lysed for 30 minutes in an ice-cold buffer for lysis (1% Triton X 100, 20 mM Tris-HCl (pH 7.4), 150 mM NaCl, 1 mM CaCl₂, 1 mM MgCl₂, 10% glycerol, 1 mM DTT and Complete protease Inhibitor Cocktail (F. Hoffmann-La Roche, Ltd.)) and centrifuged at a high speed, followed by the recovery of the supernatant of the cell lysate.
The recovered cell lysate was added to N-hydroxy succinimide-activated Sepharose 4FF beads bound with the anti-TLR9 monoclonal antibody (NaR9), and the mixture was stirred at 4° C. for 2 hours. TLR9 was immunoprecipitated by this step. The beads thus stirred were washed three times with an ice-cold buffer for washing (0.1% Triton X 100, 20 mM Tris/HCl (pH 7.4), 150 mM NaCl, 1 mM CaCl₂), 1 mM MgCl2, 0.1% glycerol, and 1 mM DTT). To the washed beads, an SDS sample buffer (125 mM Tris/HCl [pH 6.8], 20% glycerol, 4% SDS, 10% 2-ME, and 0.005% bromophenol blue) was added, and the mixture was heated at 96° C. for 5 minutes for protein denaturation treatment. The sample thus prepared was subjected to polyacrylamide electrophoresis, and the protein was transferred to a PVDF membrane and Western-blotted. […]

B1: anti-mouse TLR9 monoclonal antibody NaR9 (antibody, IgG2a, V domains shown)
VH: QVHLQQSGPDLVKPGASVQMSCKTSDYTFTNYYLHWVRQRPGQGLEWIGWIYPGDGSTKYNDQFRGRTTLTADKSSSTAYMFLSSLTSEDSAIYFCAKSWDYFDYWGQGTTLTVSS
VL: DIQMTQSPSSLSASLGGKVTITCKASQDIDNYIAWYQHKPGKGPRLLIHYASTLQPGIPSRFSGSGSGRDYSLSISNLEPEDIATYYCLQYDDLYTFGGGTKLEIK
notes: Mouse hybridoma antibody, subclass IgG2a/kappa, purified from ascitic fluid; They may therefore cover only the variable regions, possibly with a leader; also called NaR9 antibody; anti-TLR9 monoclonal antibody (NaR9)
B1: binds.
